According to patent publication US20240174727A1, “LONG-ACTING NATRIURETIC PEPTIDES AND USES THEREOF” (Eli Lilly and Company, priority 2022, published 2024):
Numbered stars: 1 amine (or outer) side, 2 acyl side, 3 side chain; on linkers, the order of the positions; unused ones are H or OH. Bridge positions count the residues as written; N and C are the ends. Square brackets hold non-standard residues; d marks the D form. * marks the point of attachment. C20 diacid = O=C(O)CCCCCCCCCCCCCCCCCCC(=O)*; γGlu = O=C(O)[C@H](CCC(=O)[*:2])N[*:1]; 4Pal = N[C@@H](Cc1ccncc1)C(=O)O

B1: Example 10 (peptide)
peptide: {C20 diacid}-[γGlu]EKEKEKGSLRRSSCFGGRIDRIGA[4Pal]SGLGCNSFRY-NH2
modifications: disulfide 15-31
SMILES: CC[C@H](C)[C@@H]1NC(=O)[C@H](CCCNC(=N)N)NC(=O)[C@H](CC(=O)O)NC(=O)[C@H]([C@@H](C)CC)NC(=O)[C@H](CCCNC(=N)N)NC(=O)CNC(=O)CNC(=O)[C@H](Cc2ccccc2)NC(=O)[C@@H](NC(=O)[C@H](CO)NC(=O)[C@H](CO)NC(=O)[C@H](CCCNC(=N)N)NC(=O)[C@H](CCCNC(=N)N)NC(=O)[C@H](CC(C)C)NC(=O)[C@H](CO)NC(=O)CNC(=O)[C@H](CCCCN)NC(=O)[C@H](CCC(=O)O)NC(=O)[C@H](CCCCN)NC(=O)[C@H](CCC(=O)O)NC(=O)[C@H](CCCCN)NC(=O)[C@H](CCC(=O)O)NC(=O)CC[C@H](NC(=O)CCCCCCCCCCCCCCCCCCC(=O)O)C(=O)O)CSSC[C@@H](C(=O)N[C@@H](CC(N)=O)C(=O)N[C@@H](CO)C(=O)N[C@@H](Cc2ccccc2)C(=O)N[C@@H](CCCNC(=N)N)C(=O)N[C@@H](Cc2ccc(O)cc2)C(N)=O)NC(=O)CNC(=O)[C@H](CC(C)C)NC(=O)CNC(=O)[C@H](CO)NC(=O)[C@H](Cc2ccncc2)NC(=O)[C@H](C)NC(=O)CNC1=O
B2: Example 13 (peptide)
peptide: {C20 diacid}-[γGlu]EKEKEKGSLRRSSCF[4Pal]GRIDRIGAQSGLGCNSFRY-NH2
modifications: disulfide 15-31
SMILES: CC[C@H](C)[C@@H]1NC(=O)[C@H](CCCNC(=N)N)NC(=O)[C@H](CC(=O)O)NC(=O)[C@H]([C@@H](C)CC)NC(=O)[C@H](CCCNC(=N)N)NC(=O)CNC(=O)[C@H](Cc2ccncc2)NC(=O)[C@H](Cc2ccccc2)NC(=O)[C@@H](NC(=O)[C@H](CO)NC(=O)[C@H](CO)NC(=O)[C@H](CCCNC(=N)N)NC(=O)[C@H](CCCNC(=N)N)NC(=O)[C@H](CC(C)C)NC(=O)[C@H](CO)NC(=O)CNC(=O)[C@H](CCCCN)NC(=O)[C@H](CCC(=O)O)NC(=O)[C@H](CCCCN)NC(=O)[C@H](CCC(=O)O)NC(=O)[C@H](CCCCN)NC(=O)[C@H](CCC(=O)O)NC(=O)CC[C@H](NC(=O)CCCCCCCCCCCCCCCCCCC(=O)O)C(=O)O)CSSC[C@@H](C(=O)N[C@@H](CC(N)=O)C(=O)N[C@@H](CO)C(=O)N[C@@H](Cc2ccccc2)C(=O)N[C@@H](CCCNC(=N)N)C(=O)N[C@@H](Cc2ccc(O)cc2)C(N)=O)NC(=O)CNC(=O)[C@H](CC(C)C)NC(=O)CNC(=O)[C@H](CO)NC(=O)[C@H](CCC(N)=O)NC(=O)[C@H](C)NC(=O)CNC1=O
B3: Example 11 (peptide)
peptide: XEKEKEKGSXRRSSCFGGRIDRIGAQSGLGCNSFRY
modifications: HOOC-(CH2)18-CO-(γGlu)-EKEKEKGS-4Pal-RRSS[CFGGRIDRIGAQSGLGC]NSFRY-NH2; disulfide linkage between the bracketed Cys
B4: Example 12 (peptide)
peptide: {C20 diacid}-[γGlu]EKEKEKGSLRRSSCFGGRIDRIGA[4Pal]SGLGCNSFR[4Pal]-NH2
modifications: disulfide 15-31
SMILES: CC[C@H](C)[C@@H]1NC(=O)[C@H](CCCNC(=N)N)NC(=O)[C@H](CC(=O)O)NC(=O)[C@H]([C@@H](C)CC)NC(=O)[C@H](CCCNC(=N)N)NC(=O)CNC(=O)CNC(=O)[C@H](Cc2ccccc2)NC(=O)[C@@H](NC(=O)[C@H](CO)NC(=O)[C@H](CO)NC(=O)[C@H](CCCNC(=N)N)NC(=O)[C@H](CCCNC(=N)N)NC(=O)[C@H](CC(C)C)NC(=O)[C@H](CO)NC(=O)CNC(=O)[C@H](CCCCN)NC(=O)[C@H](CCC(=O)O)NC(=O)[C@H](CCCCN)NC(=O)[C@H](CCC(=O)O)NC(=O)[C@H](CCCCN)NC(=O)[C@H](CCC(=O)O)NC(=O)CC[C@H](NC(=O)CCCCCCCCCCCCCCCCCCC(=O)O)C(=O)O)CSSC[C@@H](C(=O)N[C@@H](CC(N)=O)C(=O)N[C@@H](CO)C(=O)N[C@@H](Cc2ccccc2)C(=O)N[C@@H](CCCNC(=N)N)C(=O)N[C@@H](Cc2ccncc2)C(N)=O)NC(=O)CNC(=O)[C@H](CC(C)C)NC(=O)CNC(=O)[C@H](CO)NC(=O)[C@H](Cc2ccncc2)NC(=O)[C@H](C)NC(=O)CNC1=O
B5: Example 9 (peptide)
peptide: {C20 diacid}-[γGlu]EKEKEKGSLRRSSCFGGRIDRIGAQSGLGCNSFR[4Pal]-NH2
modifications: disulfide 15-31
SMILES: CC[C@H](C)[C@@H]1NC(=O)[C@H](CCCNC(=N)N)NC(=O)[C@H](CC(=O)O)NC(=O)[C@H]([C@@H](C)CC)NC(=O)[C@H](CCCNC(=N)N)NC(=O)CNC(=O)CNC(=O)[C@H](Cc2ccccc2)NC(=O)[C@@H](NC(=O)[C@H](CO)NC(=O)[C@H](CO)NC(=O)[C@H](CCCNC(=N)N)NC(=O)[C@H](CCCNC(=N)N)NC(=O)[C@H](CC(C)C)NC(=O)[C@H](CO)NC(=O)CNC(=O)[C@H](CCCCN)NC(=O)[C@H](CCC(=O)O)NC(=O)[C@H](CCCCN)NC(=O)[C@H](CCC(=O)O)NC(=O)[C@H](CCCCN)NC(=O)[C@H](CCC(=O)O)NC(=O)CC[C@H](NC(=O)CCCCCCCCCCCCCCCCCCC(=O)O)C(=O)O)CSSC[C@@H](C(=O)N[C@@H](CC(N)=O)C(=O)N[C@@H](CO)C(=O)N[C@@H](Cc2ccccc2)C(=O)N[C@@H](CCCNC(=N)N)C(=O)N[C@@H](Cc2ccncc2)C(N)=O)NC(=O)CNC(=O)[C@H](CC(C)C)NC(=O)CNC(=O)[C@H](CO)NC(=O)[C@H](CCC(N)=O)NC(=O)[C@H](C)NC(=O)CNC1=O
B6: Example 14 (peptide)
peptide: {C20 diacid}-[γGlu]EKEKEKGS[4Pal]RRSSCFGGRIDRIGA[4Pal]SGLGCNSFRY-NH2
modifications: disulfide 15-31
SMILES: CC[C@H](C)[C@@H]1NC(=O)[C@H](CCCNC(=N)N)NC(=O)[C@H](CC(=O)O)NC(=O)[C@H]([C@@H](C)CC)NC(=O)[C@H](CCCNC(=N)N)NC(=O)CNC(=O)CNC(=O)[C@H](Cc2ccccc2)NC(=O)[C@@H](NC(=O)[C@H](CO)NC(=O)[C@H](CO)NC(=O)[C@H](CCCNC(=N)N)NC(=O)[C@H](CCCNC(=N)N)NC(=O)[C@H](Cc2ccncc2)NC(=O)[C@H](CO)NC(=O)CNC(=O)[C@H](CCCCN)NC(=O)[C@H](CCC(=O)O)NC(=O)[C@H](CCCCN)NC(=O)[C@H](CCC(=O)O)NC(=O)[C@H](CCCCN)NC(=O)[C@H](CCC(=O)O)NC(=O)CC[C@H](NC(=O)CCCCCCCCCCCCCCCCCCC(=O)O)C(=O)O)CSSC[C@@H](C(=O)N[C@@H](CC(N)=O)C(=O)N[C@@H](CO)C(=O)N[C@@H](Cc2ccccc2)C(=O)N[C@@H](CCCNC(=N)N)C(=O)N[C@@H](Cc2ccc(O)cc2)C(N)=O)NC(=O)CNC(=O)[C@H](CC(C)C)NC(=O)CNC(=O)[C@H](CO)NC(=O)[C@H](Cc2ccncc2)NC(=O)[C@H](C)NC(=O)CNC1=O

Experiments:
human NPRA = molecular target: T1, human NPRA (human, UniProt P16066 33-1061); assay: cell-based or functional assay
T1 sequence (looked up): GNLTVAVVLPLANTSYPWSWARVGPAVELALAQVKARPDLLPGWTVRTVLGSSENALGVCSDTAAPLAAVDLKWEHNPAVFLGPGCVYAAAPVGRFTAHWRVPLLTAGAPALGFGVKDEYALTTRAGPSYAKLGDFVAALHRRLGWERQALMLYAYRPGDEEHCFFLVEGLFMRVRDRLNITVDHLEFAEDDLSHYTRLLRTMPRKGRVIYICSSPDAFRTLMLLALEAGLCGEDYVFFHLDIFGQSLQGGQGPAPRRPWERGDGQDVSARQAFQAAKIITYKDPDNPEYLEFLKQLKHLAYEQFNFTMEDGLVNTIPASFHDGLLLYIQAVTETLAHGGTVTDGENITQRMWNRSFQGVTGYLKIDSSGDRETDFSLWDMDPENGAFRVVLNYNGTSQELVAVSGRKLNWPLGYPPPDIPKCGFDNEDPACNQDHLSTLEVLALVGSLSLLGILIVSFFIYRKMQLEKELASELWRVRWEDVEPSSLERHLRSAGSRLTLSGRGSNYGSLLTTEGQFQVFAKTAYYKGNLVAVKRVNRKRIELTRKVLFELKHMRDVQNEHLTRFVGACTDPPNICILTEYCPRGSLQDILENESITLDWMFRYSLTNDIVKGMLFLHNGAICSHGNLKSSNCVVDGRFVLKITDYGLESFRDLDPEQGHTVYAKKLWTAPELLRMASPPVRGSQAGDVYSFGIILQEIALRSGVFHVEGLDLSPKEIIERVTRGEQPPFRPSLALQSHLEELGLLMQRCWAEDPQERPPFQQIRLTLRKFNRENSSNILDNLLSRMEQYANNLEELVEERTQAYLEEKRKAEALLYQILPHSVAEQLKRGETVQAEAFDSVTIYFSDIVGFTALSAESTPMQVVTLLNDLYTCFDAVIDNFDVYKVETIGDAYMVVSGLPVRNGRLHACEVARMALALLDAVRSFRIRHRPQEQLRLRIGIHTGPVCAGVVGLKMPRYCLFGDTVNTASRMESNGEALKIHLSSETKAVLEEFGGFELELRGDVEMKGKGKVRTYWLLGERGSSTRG

rat NPRA = molecular target: T2, rat NPRA (rat, UniProt P18910 29-1057); assay: cell-based or functional assay
T2 sequence (looked up): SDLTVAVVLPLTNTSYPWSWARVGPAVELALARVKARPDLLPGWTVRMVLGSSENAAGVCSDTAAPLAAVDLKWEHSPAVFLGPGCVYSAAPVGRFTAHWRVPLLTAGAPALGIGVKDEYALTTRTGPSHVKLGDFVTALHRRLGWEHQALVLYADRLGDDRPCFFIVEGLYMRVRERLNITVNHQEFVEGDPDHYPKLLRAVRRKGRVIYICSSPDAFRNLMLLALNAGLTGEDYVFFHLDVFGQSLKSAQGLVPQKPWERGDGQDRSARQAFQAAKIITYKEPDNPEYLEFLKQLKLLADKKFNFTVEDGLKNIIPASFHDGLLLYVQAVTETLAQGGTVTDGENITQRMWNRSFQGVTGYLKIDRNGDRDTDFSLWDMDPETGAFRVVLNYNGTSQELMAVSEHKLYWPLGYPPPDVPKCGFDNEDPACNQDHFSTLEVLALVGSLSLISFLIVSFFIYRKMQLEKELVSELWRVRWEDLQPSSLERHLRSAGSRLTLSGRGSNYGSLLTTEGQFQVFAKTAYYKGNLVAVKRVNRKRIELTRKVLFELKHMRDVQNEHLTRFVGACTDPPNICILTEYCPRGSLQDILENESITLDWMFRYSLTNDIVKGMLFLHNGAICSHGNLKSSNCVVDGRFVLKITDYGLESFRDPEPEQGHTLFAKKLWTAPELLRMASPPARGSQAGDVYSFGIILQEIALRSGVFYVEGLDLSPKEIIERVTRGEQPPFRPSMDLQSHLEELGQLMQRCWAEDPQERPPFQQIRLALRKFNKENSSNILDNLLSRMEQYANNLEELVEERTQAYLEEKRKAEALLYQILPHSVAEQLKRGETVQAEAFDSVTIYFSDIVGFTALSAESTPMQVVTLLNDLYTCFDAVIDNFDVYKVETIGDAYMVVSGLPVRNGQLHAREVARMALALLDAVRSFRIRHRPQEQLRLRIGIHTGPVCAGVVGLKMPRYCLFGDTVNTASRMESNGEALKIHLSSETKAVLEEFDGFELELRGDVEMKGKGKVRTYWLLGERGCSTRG

Binder	cGMP Assay (EC50, pM) w/BSA (human NPRA) [pM]	cGMP Assay (EC50, pM) w/Casein (human NPRA) [pM]	cGMP Assay (EC50, pM) w/BSA (rat NPRA) [pM]	cGMP Assay (EC50, pM) w/Casein (rat NPRA) [pM]
B1	64200	1310	88400	501
B2	145000	1920	24000	241
B3	24400	1020	24700	242
B4	109000	1520	85500	670
B5	100000	1870	46700	509
B6	27700	685	37800	1170
